# Measurements published in patent US20230406935A1 (F STAR THERAPEUTICS, published 2023).
# Where a chain is given by its changes, count along the chain named.
# B1: Fcab FS17-33-116 (designed binder)
# chain: TCPPCPAPELLGGPSVFLFPPKPKDTLMISRTPEVTCVVVDVSHEDPEVKFNWYVDGVEVHNAKTKPREEQYNSTYRVVSVLTVLHQDWLNGKEYKCKVSNKALPAPIEKTISKAKGQPREPQVYTLPPSRDESGYWVSLTCLVKGFYPSDIVVEWESNGEPQYWAKTTPPVLDSDGSFFLYSKLTVSNWRWQMDDFSCSVMHEALHNHYTQKSLSLSPGK
# B2: Fcab FS17-33-116 with LALA mutation (designed binder)
# chain: B1 chain with L10A, L11A
# B3: Fcab FS17-33-288 with LALA mutation (designed binder)
# chain: B1 chain with L10A, L11A, M194I
# B4: FS17-33-289AA/HelD1.3 mock mAb^2 (bispecific antibody, human IgG1, kappa, L234A L235A)
# heavy: QVQLQESGPGLVRPSQTLSLTCTVSGSTFSGYGVNWVRQPPGRGLEWIGMIWGDGNTDYNSALKSRVTMLVDTSKNQFSLRLSSVTAADTAVYYCARERDYRLDYWGQGSLVTVSSASTKGPSVFPLAPSSKSTSGGTAALGCLVKDYFPEPVTVSWNSGALTSGVHTFPAVLQSSGLYSLSSVVTVPSSSLGTQTYICNVNHKPSNTKVDKKVEPKSCDKTHTCPPCPAPEAAGGPSVFLFPPKPKDTLMISRTPEVTCVVVDVSHEDPEVKFNWYVDGVEVHNAKTKPREEQYNSTYRVVSVLTVLHQDWLNGKEYKCKVSNKALPAPIEKTISKAKGQPREPQVYTLPPSRDESGYWVSLTCLVKGFYPSDIVVEWESNGEPQYWAKTTPPVLDSDGSFFLYSKLTVSNWRWQLDDFSCSVMHEALHNHYTQKSLSLSPGK
# light: DIQMTQSPASLSASVGETVTITCRASGNIHNYLAWYQQKQGKSPQLLVYNAKTLADGVPSRFSGSGSGTQYSLKINSLQPEDFGSYYCQHFWSTPRTFGGGTKLEIKRTVAAPSVFIFPPSDEQLKSGTASVVCLLNNFYPREAKVQWKVDNALQSGNSQESVTEQDSKDSTYSLSSTLTLSKADYEKHKVYACEVTHQGLSSPVTKSFNRGEC
# notes: also called F17-33-289AA/HelD1.3; F17-33-289AA/HELD1.3
# B5: FS17-33-288AA/HelD1.3 mock mAb^2 (bispecific antibody, human IgG1, kappa, L234A L235A)
# heavy: B4 heavy with L417I
# light: B4 light
# notes: also called F17-33-288AA/HelD1.3; F17-33-288AA/HELD1.3
# B6: FS17-33-296AA/HelD1.3 mock mAb^2 (bispecific antibody, human IgG1, kappa, L234A L235A)
# heavy: B4 heavy with L417V
# light: B4 light
# notes: also called F17-33-296AA/HelD1.3; F17-33-296AA/HELD1.3
# B7: FS17-33-334AA/HelD1.3 mock mAb^2 (bispecific antibody, human IgG1, kappa, L234A L235A)
# heavy: B4 heavy with V376A
# light: B4 light
# B8: Fcab FS17-33-289 with LALA mutation (designed binder)
# chain: B1 chain with L10A, L11A, M194L
# B9: FS17-33-289/HelD1.3 mock mAb^2 (without LALA) (bispecific antibody, human IgG1, kappa)
# heavy: B4 heavy with A233L, A234L
# light: B4 light
# B10: Fcab FS17-33-289 (designed binder)
# chain: B1 chain with M194L
# B11: Fcab FS17-33-296 (designed binder)
# chain: B1 chain with M194V
# B12: Fcab FS17-33-296 with LALA mutation (designed binder)
# chain: B1 chain with L10A, L11A, M194V
# B13: FS17-33-296/HelD1.3 mock mAb^2 (without LALA) (bispecific antibody, human IgG1, kappa)
# heavy: B4 heavy with A233L, A234L, L417V
# light: B4 light
# B14: Fcab FS17-33-334 with LALA mutation (designed binder)
# chain: B1 chain with L10A, L11A, V153A, M194L
# B15: FS17-33-449AA/HelD1.3 mock mAb^2 (bispecific antibody, human IgG1, kappa, L234A L235A)
# heavy: QVQLQESGPGLVRPSQTLSLTCTVSGSTFSGYGVNWVRQPPGRGLEWIGMIWGDGNTDYNSALKSRVTMLVDTSKNQFSLRLSSVTAADTAVYYCARERDYRLDYWGQGSLVTVSSASTKGPSVFPLAPSSKSTSGGTAALGCLVKDYFPEPVTVSWNSGALTSGVHTFPAVLQSSGLYSLSSVVTVPSSSLGTQTYICNVNHKPSNTKVDKKVEPKSCDKTHTCPPCPAPEAAGGPSVFLFPPKPKDTLMISRTPEVTCVVVDVSHEDPEVKFNWYVDGVEVHNAKTKPREEQYNSTYRVVSVLTVLHQDWLNGKEYKCKVSNKALPAPIEKTISKAKGQPREPQVYTLPPSRDETGYWVSLTCLVKGFYPSDIAVEWESNGEPQYWAKTTPPVLDSDGSFFLYSKLTVSNWRWQLDDVFSCSVMHEALHNHYTQKSLSLSPGK
# light: B4 light
# B16: FS17-33-451AA/HelD1.3 mock mAb^2 (bispecific antibody, human IgG1, kappa, L234A L235A)
# heavy: B15 heavy with T357E
# light: B4 light
# notes: also called F17-33-451AA/HelD1.3; F17-33-451AA/HELD1.3
# B17: FS17-33-449/HelD1.3 mock mAb^2 (without LALA) (bispecific antibody, human IgG1, kappa)
# heavy: B15 heavy with A233L, A234L
# light: B4 light
# B18: FS17-33-451/HelD1.3 mock mAb^2 (without LALA) (bispecific antibody, human IgG1, kappa)
# heavy: B15 heavy with A233L, A234L, T357E
# light: B4 light
# B19: FS17-33-451AA/MSL109 mock mAb^2 (bispecific antibody, human IgG1, kappa, L234A L235A)
# heavy: EEQVLESGGGLVKPGGSLRLSCAASGFTFSPYSVFWVRQAPGKGLEWVSSINSDSTYKYYADSVKGRFTISRDNAENSIFLQMNSLRAEDTAVYYCARDRSYYAFSSGSLSDYYYGLDVWGQGTTVIVSSASTKGPSVFPLAPSSKSTSGGTAALGCLVKDYFPEPVTVSWNSGALTSGVHTFPAVLQSSGLYSLSSVVTVPSSSLGTQTYICNVNHKPSNTKVDKKVEPKSCDKTHTCPPCPAPEAAGGPSVFLFPPKPKDTLMISRTPEVTCVVVDVSHEDPEVKFNWYVDGVEVHNAKTKPREEQYNSTYRVVSVLTVLHQDWLNGKEYKCKVSNKALPAPIEKTISKAKGQPREPQVYTLPPSRDEEGYWVSLTCLVKGFYPSDIAVEWESNGEPQYWAKTTPPVLDSDGSFFLYSKLTVSNWRWQLDDVFSCSVMHEALHNHYTQKSLSLSPGK
# light: DIVMTQSPLSLSVTPGEPASISCRSSQSLLHTNGYNYLDWYVQKPGQSPQLLIYLASNRASGVPDRFSGSGSGTDFTLKISRVETEDVGVYYCMQALQIPRTFGQGTKVEIKRTVAAPSVFIFPPSDEQLKSGTASVVCLLNNFYPREAKVQWKVDNALQSGNSQESVTEQDSKDSTYSLSSTLTLSKADYEKHKVYACEVTHQGLSSPVTKSFNRGEC
# notes: also called FS17-33-451AA/MSL109 (parent 2)
# B20: FS17-33-539AA/MSL109 (bispecific antibody, human IgG1, kappa, L234A L235A)
# heavy: B19 heavy with E371T, D432G, H445R
# light: B19 light
# B21: FS17-33-548AA/MSL109 (bispecific antibody, human IgG1, kappa, L234A L235A)
# heavy: B19 heavy with D432G
# light: B19 light
# Molecular target: T1, Human PD-L1 expressed on cells (human, UniProt Q9NZQ7 19-290)
# Test: cell-based or functional assay
# T1 sequence (Q9NZQ7 19-290 limits assumed): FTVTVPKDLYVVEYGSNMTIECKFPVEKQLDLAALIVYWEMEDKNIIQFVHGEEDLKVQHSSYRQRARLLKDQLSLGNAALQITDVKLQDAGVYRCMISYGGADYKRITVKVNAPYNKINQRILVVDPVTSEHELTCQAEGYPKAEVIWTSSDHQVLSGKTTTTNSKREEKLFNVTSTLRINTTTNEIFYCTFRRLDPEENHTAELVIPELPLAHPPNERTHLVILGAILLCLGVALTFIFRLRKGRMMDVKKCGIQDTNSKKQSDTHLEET
row,Binder,SEB assay EC50
1,B1,0.0753 nM

# Molecular target: T1, Human PD-L1 expressed on cells
# Test: cell-based or functional assay
# Remark: another data set of the same source
row,Binder,SEB assay (IFNγ release) EC50
1,B2,0.1 nM
2,B3,0.0899 nM
3,B4,0.566 nM
4,B5,1.02 nM
5,B6,1.77 nM
6,B7,0.761 nM
7,B8,0.108 nM
8,B9,0.969 nM
9,B10,0.0886 nM
10,B11,0.0869 nM
11,B12,0.124 nM
12,B13,1.71 nM
13,B14,0.144 nM
14,B15,0.55 nM
15,B16,1.12 nM
16,B17,0.644 nM
17,B18,0.852 nM

# Molecular target: T1, Human PD-L1 expressed on cells
# Test: cell-based or functional assay
# Remark: another data set of the same source
row,Binder,SEB EC50
1,B19,1.11 nM
2,B20,0.97 nM
3,B21,3.21 nM
